The target in test [1] is T1, recombinant human IFNγ (human, UniProt P01579 24-166, limits assumed).
T1 sequence (looked up): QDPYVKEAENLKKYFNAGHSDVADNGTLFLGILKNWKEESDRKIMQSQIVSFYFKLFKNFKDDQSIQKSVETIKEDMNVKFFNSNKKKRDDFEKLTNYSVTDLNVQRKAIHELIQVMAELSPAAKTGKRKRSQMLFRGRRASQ
Briefly: cell-based or functional assay.

A further test has as its target T2, recombinant dog IFNγ (dog, UniProt P42161 24-166).
T2 construct: also called rdIFNγ
T2 sequence (looked up): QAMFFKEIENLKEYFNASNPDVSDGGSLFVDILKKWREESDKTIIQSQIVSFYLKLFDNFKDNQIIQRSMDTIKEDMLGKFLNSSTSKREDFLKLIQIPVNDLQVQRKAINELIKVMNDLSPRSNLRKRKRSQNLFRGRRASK
Briefly: Sandwich ELISA, IFNγ captured with pre-coated NI-0501. An excerpt:
(§1) The IFNγ from each species was detected using a polyclonal antibody specific for the IFNγ in that assay.
In general terms: An ELISA detects its analyte on a solid surface through an enzyme-linked reagent.

For a further test, the target named is T3, recombinant cat IFNγ (cat, UniProt P46402 24-167).
T3 construct: also called rcIFNγ
T3 sequence (looked up): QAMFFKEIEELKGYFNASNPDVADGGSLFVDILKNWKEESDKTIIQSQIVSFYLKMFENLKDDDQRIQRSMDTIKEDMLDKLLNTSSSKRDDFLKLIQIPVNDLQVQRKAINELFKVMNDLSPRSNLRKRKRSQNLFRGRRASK
The description is as above.
Description: as §1

The target of test [2] is T1, recombinant human IFNγ. Briefly: Binding, cross-reactivity table (Sandwich ELISA).
The target of test [3] is T4, recombinant cynomolgus IFNγ (cynomolgus monkey, UniProt P63309 24-165).
T4 construct: also called rcyIFNγ
T4 sequence (looked up): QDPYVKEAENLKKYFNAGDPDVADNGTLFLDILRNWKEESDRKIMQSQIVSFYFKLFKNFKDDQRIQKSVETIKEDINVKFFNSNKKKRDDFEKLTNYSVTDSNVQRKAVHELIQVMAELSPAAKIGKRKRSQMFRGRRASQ
Briefly: Binding, cross-reactivity table (Sandwich ELISA).

The target of another test is T5, native cynomolgus IFNγ (cynomolgus monkey, UniProt P63309 24-165, limits assumed).
T5 construct: Native protein in a culture supernatant; also called ncyIFNγ
T5 sequence (looked up): T4 sequence (looked up)
Put plainly: Binding, cross-reactivity table (Sandwich ELISA).

The target of another test is T6, native human IFNγ (human, UniProt P01579 24-161, limits assumed).
T6 construct: Native protein in a culture supernatant; also called nhuIFNγ
T6 sequence (looked up): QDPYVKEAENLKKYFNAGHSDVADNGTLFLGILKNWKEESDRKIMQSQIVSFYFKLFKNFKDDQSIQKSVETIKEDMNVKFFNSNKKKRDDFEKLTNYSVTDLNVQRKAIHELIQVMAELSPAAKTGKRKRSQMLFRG
Briefly: Binding, cross-reactivity table (Sandwich ELISA).

Residue numbers refer to the chain shown, from its start.

B1: AD1.4R4P1_B9 IgG (antibody, V domains shown)
VH: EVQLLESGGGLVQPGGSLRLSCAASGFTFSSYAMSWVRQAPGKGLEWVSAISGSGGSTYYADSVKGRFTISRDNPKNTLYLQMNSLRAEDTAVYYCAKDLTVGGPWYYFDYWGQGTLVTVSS
VL: NFMLTQPHSVSESPGKTVTISCTRSSGSIVSNYVQWYQQRPGSAPTTVIFDDDQRPSGVPGRFSGSLDSSSNSASLTISGLQTEDEADYYCQSYDSSNVVFGGGTKVTVLG
As for B1, the “MHC II Inhibition Cell-Based Assay IC50” value with recombinant human IFNγ [1] is 322 pM.

B2: AC1.2R3P2_A6 IgG (antibody, V domains shown)
VH: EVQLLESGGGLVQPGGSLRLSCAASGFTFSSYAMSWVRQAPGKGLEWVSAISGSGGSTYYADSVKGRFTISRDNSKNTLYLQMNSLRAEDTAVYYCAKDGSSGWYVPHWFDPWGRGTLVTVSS
VL: NFMLTQPHSVSESPGKTVTISCTRSSGSIVSNYVQWYQQRPGSAPTTVIYEDNRRPSGVPDRFSGSIDSSSNTASLTISGLEAEDEADYYCQSYDGSNRWMFGGGTKLTVLG
With B2, the “MHC II Inhibition Cell-Based Assay IC50” value with recombinant human IFNγ [1] was 41 pM.

B3: AC1.2R2P2_D8 IgG (antibody, V domains shown)
VH: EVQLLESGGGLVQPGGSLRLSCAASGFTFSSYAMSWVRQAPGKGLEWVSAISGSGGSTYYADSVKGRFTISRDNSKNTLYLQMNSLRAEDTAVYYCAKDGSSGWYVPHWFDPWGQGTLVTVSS
VL: B2 VL with A44S, R54Q, T73S, E82K, A83T, G96S, S97N, R99F, M101V
For the molecule B3, the “MHC II Inhibition Cell-Based Assay IC50” value with recombinant human IFNγ [1] is 708 pM.

B4: NI-0501 (antibody, V domains shown)
VH: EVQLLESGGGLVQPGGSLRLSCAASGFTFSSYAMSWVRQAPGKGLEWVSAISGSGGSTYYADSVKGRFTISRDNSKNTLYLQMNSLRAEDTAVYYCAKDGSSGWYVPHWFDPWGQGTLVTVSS
VL: NFMLTQPHSVSESPGKTVTISCTRSSGSIASNYVQWYQQRPGSSPTTVIYEDNQRPSGVPDRFSGSIDSSSNSASLTISGLKTEDEADYYCQSYDGSNRWMFGGGTKLTVL
notes: It is the back-mutated version of A6; also called A6 back-mutated to germline; back-mutated A6
With B4, the binding result was “no binding” with recombinant dog IFNγ; “no binding” with recombinant cat IFNγ; “binds” with recombinant human IFNγ [2]; “binds” in test [3]; “binds” with native cynomolgus IFNγ; “binds” in the test with native human IFNγ.

B5: AC1.4R4P2_C10 IgG (antibody, V domains shown)
VH: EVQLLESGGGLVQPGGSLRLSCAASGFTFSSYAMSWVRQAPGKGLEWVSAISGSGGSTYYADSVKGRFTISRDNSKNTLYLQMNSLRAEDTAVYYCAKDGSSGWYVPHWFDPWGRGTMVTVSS
VL: NFMLTQPHSVSESPGKTVTISCTRSSGTIASNYVQWYQQRPGSSPTTVIYEDNQRPSGVPDRFSGSIDSSSNSASLTISGLKTEDEADYYCQSYDNSNHWVFGGGTKVTVLG
Regarding B5, in the test with recombinant human IFNγ [1], the “MHC II Inhibition Cell-Based Assay IC50” value was 203 pM.

B6: AD1.3R3P6_F9 IgG (antibody, V domains shown)
VH: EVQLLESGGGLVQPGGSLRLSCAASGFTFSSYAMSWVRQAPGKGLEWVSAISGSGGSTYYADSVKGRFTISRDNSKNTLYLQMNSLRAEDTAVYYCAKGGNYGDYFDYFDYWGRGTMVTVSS
VL: NFMLTQPHSVSESPGKTVTISCTRSSGSIASNYVQWYQQRPGSAPTIVIYEDNQRPSGVPHRFSGSIDSSSNSASLTISGLKTEDEADYYCQSYEGFGGGTKLTVLG
For B6, in the test with recombinant human IFNγ [1], the “MHC II Inhibition Cell-Based Assay IC50” value turned out to be 185 pM.

B7: AD1.4R4P2_G7 IgG (antibody, V domains shown)
VH: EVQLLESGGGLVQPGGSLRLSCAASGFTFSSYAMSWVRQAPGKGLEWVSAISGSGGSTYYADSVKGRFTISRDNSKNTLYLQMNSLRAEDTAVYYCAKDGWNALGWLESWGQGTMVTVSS
VL: NFMLTQPHAVSESPGKTVTISCTGRNGNIASNYVQWYQQRPDSAPTLIIFEDTQRPSGVPTRLSGSIDTSSNSASLIISSLRTEDEADYYCQSSDSNRVLFGGGTKVTVLG
Regarding B7, the “MHC II Inhibition Cell-Based Assay IC50” value with recombinant human IFNγ [1] was determined as 233 pM.

B8: AD1.3R3P5_F8 IgG (antibody, V domains shown)
VH: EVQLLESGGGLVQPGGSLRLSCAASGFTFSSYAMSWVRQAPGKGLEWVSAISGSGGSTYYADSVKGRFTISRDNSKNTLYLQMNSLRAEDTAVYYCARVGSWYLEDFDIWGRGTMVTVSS
VL: NFMLTQPHSVSESPGKTVTISCTRSSGSIASNYVHWYQQRPGSSPTTVIYEDNRRPSGVPARFSGSIDSSSNSASLTISGLETDDEADYYCQSSDTTYHGGVVFGGGTKLTVLG
Take B8: the “MHC II Inhibition Cell-Based Assay IC50” value in the test with recombinant human IFNγ [1] was found to be 1520 pM.
